Assay results from patent publication US20190177382A1 (US Dept. of Health and Human Services, published 2019).

Molecular target: T1, KDR ectodomain-IgG fusion protein (UniProt P35968 20-764, limits assumed)
T1 construct: extracellular domain; also called KDR-Ig ectodomain; not shown: IgG portion of the fusion
Experiment: electrochemiluminescent saturation binding; VEGF captured by a non-neutralizing anti-VEGF mAb, KDR-Ig ectodomain titrated, detected with tagged anti-KDR

T1 sequence (P35968 20-764 limits assumed): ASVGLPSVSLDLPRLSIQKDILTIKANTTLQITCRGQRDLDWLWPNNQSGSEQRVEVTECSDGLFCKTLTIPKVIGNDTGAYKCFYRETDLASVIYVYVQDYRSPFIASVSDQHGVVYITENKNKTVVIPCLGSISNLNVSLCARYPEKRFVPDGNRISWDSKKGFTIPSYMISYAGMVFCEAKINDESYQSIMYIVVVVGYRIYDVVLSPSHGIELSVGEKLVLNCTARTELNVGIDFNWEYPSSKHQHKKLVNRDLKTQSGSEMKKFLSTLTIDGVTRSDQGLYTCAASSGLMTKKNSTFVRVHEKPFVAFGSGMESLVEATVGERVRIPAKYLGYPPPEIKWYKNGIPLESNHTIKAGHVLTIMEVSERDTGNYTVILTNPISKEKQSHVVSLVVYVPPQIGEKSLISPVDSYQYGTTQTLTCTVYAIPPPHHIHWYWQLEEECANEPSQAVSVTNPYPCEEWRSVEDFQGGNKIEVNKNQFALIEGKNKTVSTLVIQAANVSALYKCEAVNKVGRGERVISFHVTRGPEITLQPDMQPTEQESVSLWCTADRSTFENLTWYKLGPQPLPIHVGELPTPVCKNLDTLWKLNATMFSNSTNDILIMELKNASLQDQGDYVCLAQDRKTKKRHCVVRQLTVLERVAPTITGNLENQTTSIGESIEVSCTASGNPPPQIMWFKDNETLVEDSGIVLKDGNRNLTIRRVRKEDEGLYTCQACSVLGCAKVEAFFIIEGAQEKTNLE

Kd: ~0.019 nM
B1: VEGF165 3S (human VEGF165 R123E/R124E/R159E) (ligand)
chain: APMAEGGGQNHHEVVKFMDVYQRSYCHPIETLVDIFQEYPDEIEYIFKPSCVPLMRCGGCCNDEGLECVPTEESNITMQIMRIKPHQGQHIGEMSFLQHNKCECRPKKDRARQENPCGPCSEEEKHLFVQDPQTCKCSCKNTDSRCKARQLELNERTCECDKPRR
notes: Secreted into conditioned media by 293/KDR transfectants, made with the native signal peptide; also called VEGF 3S
